Source: IntAct's records for PubMed 17166838

B1: Huntingtin-associated protein 1 (Rattus norvegicus (Rat)), P54256-2 (parent)
chain: MRPKDQVQSSAGDGTGSGDPATGTPTTQPAADPAPEPSAEPKPAPAQGTGSGQKSGSRTKTGGSFCRSRIRGDSDAPWTRYIFQGPYGPRATGLGTGRAEGIWKTPAAYIGRRPGVSGPERAAFIRELQEALCPNPLPRKKITEDDIKVMLYLLEEKERDLNTAARIGQSLVKQNSVLMEENNKLETMLGSAREEILHLRKQVNLRDDLLQLYSDSDDDEEDEEDEEEEEGEEEEREGQRDQDQQHDHPYGAPKPPPKAETLHHCPQLEALKQKLKLLEEENDHLREEASHLDNLEDKEQMLILECVEQFSEASQQMAELSEVLVLRLEGYERQQKEITQLQAEITKLQQRCQSYGAQTEKLQQQLASEKGVHPESLRAGSHMQDYGSRPRERQEDGKSHRQRSSMPAGSVTHYGYSVPLDALPSFPETLAEELRTSLRKFITDPAYFMERCDTRCREERKKEQGTMPPPPVQDLKPPEDFEAPEELVPEEELGAIEEVGTAEDGPAEETEQASEETEAWEEVEPEVDEATRMNVVVSALEASGLGPSHLDMKYVLQQLSNWQDAHSKRQQKQKVVPKGECSRRGHPPASGTSYRSSTL

Variants of: B1
Details: with 1433z_human YWHAZ

| effect of a mutation on the interaction | Variant |
| --- | --- |
| disrupting interaction | MRPKDQVQSSAGDGTGSGDPATGTPTTQPAADPAPEPSAEPKPAPAQGTGSGQKSGSRTKTGGSFCRSRIRGDSDAPWTRYIFQGPYGPRATGLGTGRAEGIWKTPAAYIGRRPGVSGPERAAFIRELQEALCPNPLPRKKITEDDIKVMLYLLEEKERDLNTAARIGQSLVKQNSVLMEENNKLETMLGSAREEILHLRKQVNLRDDLLQLYSDSDDDEEDEEDEEEEEGEEEEREGQRDQDQQHDHPYGAPKPPPKAETLHHCPQLEALKQKLKLLEEENDHLREEASHLDNLEDKEQMLILECVEQFSEASQQMAELSEVLVLRLEGYERQQKEITQLQAEITKLQQRCQSYGAQTEKLQQQLASEKGVHPESLRAGSHMQDYGSRPRERQEDGKSHRQRSSMPAGSVTHYGYSVPLDALPSFPETLAEELRTSLRKFITDPAYFMERCDTRCREERKKEQGTMPPPPVQDLKPPEDFEAPEELVPEEELGAIEEVGTAEDGPAEETEQASEETEAWEEVEPEVDEATRMNVVVSALEASGLGPSHLDMKYVLQQLSNWQDAHSKRQQKQKVVPKGECSRRGHPPASGTSYRSSAL [T598A] |
